Experimental data reported in patent publication US20060121042A1 (AstraZeneca / MedImmune, published 2006).

T1: r murine EphA8 (mouse, UniProt O09127)
T1 construct: recombinant soluble protein coated on the plate; also called mEphA8; rEphA8
T1 sequence (receptor construct, looked up): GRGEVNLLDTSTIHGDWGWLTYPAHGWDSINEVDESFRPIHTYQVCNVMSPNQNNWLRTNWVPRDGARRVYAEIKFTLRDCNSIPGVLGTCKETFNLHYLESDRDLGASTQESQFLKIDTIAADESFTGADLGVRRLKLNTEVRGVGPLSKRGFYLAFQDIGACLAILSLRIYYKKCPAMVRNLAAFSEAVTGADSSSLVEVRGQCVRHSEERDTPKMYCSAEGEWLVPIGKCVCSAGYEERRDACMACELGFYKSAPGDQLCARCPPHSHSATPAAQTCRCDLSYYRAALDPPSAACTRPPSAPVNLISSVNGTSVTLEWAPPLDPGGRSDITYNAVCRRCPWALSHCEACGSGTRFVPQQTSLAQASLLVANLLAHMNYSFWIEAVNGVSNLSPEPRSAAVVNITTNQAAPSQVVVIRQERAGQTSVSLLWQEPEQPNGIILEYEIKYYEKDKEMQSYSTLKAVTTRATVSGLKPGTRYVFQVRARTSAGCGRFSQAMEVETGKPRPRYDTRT

T2: r murine EphA7 (mouse, UniProt Q61772)
T2 construct: recombinant Fc fusion (R&D Systems); also called rmuEphA7-Fc; mEphA7
T2 sequence (receptor-Fc fusion, looked up): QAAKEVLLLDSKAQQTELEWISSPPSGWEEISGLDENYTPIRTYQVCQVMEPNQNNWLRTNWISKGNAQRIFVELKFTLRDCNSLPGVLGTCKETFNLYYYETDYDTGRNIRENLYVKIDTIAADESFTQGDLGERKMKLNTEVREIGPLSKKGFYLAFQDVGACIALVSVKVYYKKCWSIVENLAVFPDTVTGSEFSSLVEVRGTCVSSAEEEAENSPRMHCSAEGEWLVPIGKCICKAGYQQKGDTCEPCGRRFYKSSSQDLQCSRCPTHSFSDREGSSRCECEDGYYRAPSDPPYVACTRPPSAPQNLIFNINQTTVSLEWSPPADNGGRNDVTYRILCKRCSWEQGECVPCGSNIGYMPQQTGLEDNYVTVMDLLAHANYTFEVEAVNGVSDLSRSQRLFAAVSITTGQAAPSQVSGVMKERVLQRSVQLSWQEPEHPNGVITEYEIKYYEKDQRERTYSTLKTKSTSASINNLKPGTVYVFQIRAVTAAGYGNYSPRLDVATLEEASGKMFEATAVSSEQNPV

T3: mEphA7 (mouse, UniProt Q61772)
T3 construct: part of an Fc fusion; also called rmuEphA7-Fc
T3 sequence (receptor-Fc fusion, looked up): T2 sequence (receptor-Fc fusion, looked up)

B1: 1D3 (antibody, V domains shown)
VH: EVQLLESGGGLVQPGGSLRLSCAASGFTFSPYDMLWVRQAPGKGLEWVSRIGSSGGYTKYADSVKGRFTISRDNSKNTLYLQMNSLRAEDTAVYYCARARSVVVSSDAFDIWGQGTMVTVSS
VL: DIQMTQSPSSVSASVGDRVTITCRASQGISKWLAWYQQKPGKAPKLLIFGASTLQSGVPSKFSGSKSGTDFTLTISSLQPEDSATYYCQQYNDYPLTFGGGTKVEIK
B2: 2C9 IgG1 (affinity optimized combinatorial variant of mAb GEA44 in human IgG1 format) (antibody, V domains shown)
VH: QVQLLQSGAEVKKPGASVKVPCKASGYTFTSRAMSWVRQAPGQGLEWMGWINTNTGNPTYAQGFTGRFVFSLDTSVSTAYLQISSLKAEDTAVYYCARVRFTVYGDGMDVWGQGTLVTVSS
VL: EIVLTQSPATLSVSPGERATLSCRASQSVSSNLAWYQQKPGQAPRLLIYGASTRPTGIPDRFSASGSGTDFTLTISRVEPEDFAVYYCQQYGPSWTFGQGTKVEIK

Assays:
[1] = target: mEph A2 (mouse, UniProt Q03145); assay: ELISA
[2] = target: T1, r murine EphA8; assay: Activity ELISA, receptor coated on the plate, purified IgG, anti-human kappa-HRP, OD 450 nm
Description: (§1) Secondary screening of IgG constructs of affinity optimized combinatorial variants with additional EphA receptors: With purified IgG constructs of the nine combinatorial variants, additional secondary screening assays were performed using the Activity ELISA (see above) and recombinant EphA receptor proteins. More precisely, Nunc Maxisorp plates were coated with the following rEphA proteins: rhuEphAl-Fc; 0.5 μg/well, rmuEphA2-Fc; 0.5 μg/well, rmuEphA3-Fc: 0.1 μg/well, rmuEphA4-Fc; 0.1 μg/well, rratEphA5-Fc; 0.5 μg/well, rmuEphA6-Fc; 0.5 μg/well, rmuEphA7-Fc; 0.1 μg/well, rEphA8; 0.2 μg/well (all R&D Systems), rhuEphA2-Fc; 0.5 μg/well, and rhuEphA4-His; 0.1 μg/well (both produced at MedImmune, Inc.). Plates were blocked with 3% BSA+0.1% Tween20 for 2 h. […] Incubation with a goat anti-human kappa horseradish peroxydase (HRP) conjugate then followed. HRP activity was detected with TMB substrate and the reaction quenched with 0.2 M H₂SO₄. Plates were read at 450 nm. Data was analyzed by normalizing Fab concentrations to the corresponding activity data (see FIGS. 12A-12J and 14).

[3] = target: T2, r murine EphA7; assay: activity ELISA, IgG on coated antigen
Description: as §1

[4] = target: T4, r murine EphA4 (mouse, UniProt Q03137); assay: activity ELISA, IgG on coated antigen
T4 construct: recombinant Fc fusion (R&D Systems); also called rmuEphA4-Fc; mEphA4
Description: as §1

[5] = target: T5, Human EphA4-Fc fusion protein (human, UniProt P54764 20-547); assay: BIAcore, IgG immobilized on the sensor chip, EphA4-Fc as analyte
T5 construct: not shown: Fc portion of a human IgG1
Description: FIG. 15A-15B. […] Binding affinities were measured using the BIAcore assay. […] Variant kinetic measurements for human EphA4 and were obtained using BIAcore with immobilized variant antibodies and human EphA4-Fc and EphA4-His as analytes.

[6] = target: T6, mEphA4 (mouse, UniProt Q03137); assay: ELISA, receptor coated on the plate, purified IgG, anti-human kappa-HRP
T6 construct: part of an Fc fusion; also called rmuEphA4-Fc
Description: as §1

[7] = target: T3, mEphA7; assay: as above
Description: as §1

T5 sequence (P54764 20-547): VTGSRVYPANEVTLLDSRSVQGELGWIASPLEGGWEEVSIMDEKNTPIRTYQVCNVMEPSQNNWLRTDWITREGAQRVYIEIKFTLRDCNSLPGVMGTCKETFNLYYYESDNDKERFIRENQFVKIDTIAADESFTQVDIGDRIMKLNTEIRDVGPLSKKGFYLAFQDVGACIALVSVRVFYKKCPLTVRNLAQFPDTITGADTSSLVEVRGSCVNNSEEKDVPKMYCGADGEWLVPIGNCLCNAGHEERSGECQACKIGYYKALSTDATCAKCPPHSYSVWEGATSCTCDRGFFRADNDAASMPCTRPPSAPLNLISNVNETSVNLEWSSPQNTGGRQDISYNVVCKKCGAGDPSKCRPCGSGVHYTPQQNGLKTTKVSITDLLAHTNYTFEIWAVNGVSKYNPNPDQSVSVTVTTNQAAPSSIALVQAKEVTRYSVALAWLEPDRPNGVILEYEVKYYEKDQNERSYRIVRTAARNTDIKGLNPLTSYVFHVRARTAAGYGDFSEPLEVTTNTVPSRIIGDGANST
T4 sequence (Q03137 20-547 limits assumed): as the sequence (P54764 20-547) above, with P59A, N121S, V124G, R250Q, S251N, T270S, K378R, N406S counted along it
T6 sequence (Q03137 20-547 limits assumed): as the sequence (P54764 20-547) above, with P59A, N121S, V124G, R250Q, S251N, T270S, K378R, N406S counted along it
Chain of mEph A2 (Q03145 26-535 limits assumed): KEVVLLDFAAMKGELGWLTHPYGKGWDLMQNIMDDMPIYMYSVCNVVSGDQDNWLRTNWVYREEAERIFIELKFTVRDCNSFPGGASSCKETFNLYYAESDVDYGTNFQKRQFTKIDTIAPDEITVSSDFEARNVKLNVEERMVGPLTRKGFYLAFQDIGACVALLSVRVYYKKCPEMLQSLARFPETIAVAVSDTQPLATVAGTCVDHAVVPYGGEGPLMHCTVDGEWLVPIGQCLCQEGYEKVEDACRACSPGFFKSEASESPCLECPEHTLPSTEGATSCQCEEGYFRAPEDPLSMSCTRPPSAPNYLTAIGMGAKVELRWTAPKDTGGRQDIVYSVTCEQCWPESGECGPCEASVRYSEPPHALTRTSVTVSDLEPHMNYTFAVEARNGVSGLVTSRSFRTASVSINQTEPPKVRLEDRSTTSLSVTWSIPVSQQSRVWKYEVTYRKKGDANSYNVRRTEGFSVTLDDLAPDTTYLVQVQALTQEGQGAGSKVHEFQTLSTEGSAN

Row | Binder | ELISA O.D. value [1] | binding result [2] | binding result [3] | binding result [4] | Kd [5] | koff [5] | kon [5] | binding result [6] | binding result [7]
1 | B1 | 0.316 | – | – | – | – | – | – | – | –
2 | B2 | – | binds | binds | binds | 0.044 nM | 1.91e-05 s⁻¹ | 434000 M⁻¹ s⁻¹ | binds | binds
